Laboratory results as given in paper PMC2838725 (Biochemistry, 2010).
No end group written: not given here.

Key:
[1] = target: C-terminal domain of Stt3p (residues 466-718), N-terminal His6-tagged (Saccharomyces cerevisiae) (UniProt P39007); assay: NMR titration
[2] = target: T1, C-terminal domain of Stt3p (residues 466-718), N-terminal His6-tagged (Saccharomyces cerevisiae, UniProt P39007 466-718); assay: saturation transfer difference
T1 sequence (looked up): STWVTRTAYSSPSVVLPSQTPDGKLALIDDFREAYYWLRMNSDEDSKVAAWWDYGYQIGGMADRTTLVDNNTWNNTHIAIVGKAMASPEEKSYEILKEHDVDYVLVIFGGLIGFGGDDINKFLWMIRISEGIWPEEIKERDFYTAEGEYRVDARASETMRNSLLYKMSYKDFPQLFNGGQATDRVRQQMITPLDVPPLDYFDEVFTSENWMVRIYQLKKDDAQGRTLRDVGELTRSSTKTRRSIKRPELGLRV

With substrate peptide Asn-Asp-Thr-NH2 the Kd [1] was 9.97 mM.

YNSTSC-NH2 [six-residue acceptor substrate peptide Tyr-Asn-Ser-Thr-Ser-Cys-Am]: binds [2].
